Measured values: patent publication US20230406935A1 (F STAR THERAPEUTICS, published 2023)
Positions count from the first letter of the chain named.

B1: Fcab FS17-33-116 (designed binder)
chain: TCPPCPAPELLGGPSVFLFPPKPKDTLMISRTPEVTCVVVDVSHEDPEVKFNWYVDGVEVHNAKTKPREEQYNSTYRVVSVLTVLHQDWLNGKEYKCKVSNKALPAPIEKTISKAKGQPREPQVYTLPPSRDESGYWVSLTCLVKGFYPSDIVVEWESNGEPQYWAKTTPPVLDSDGSFFLYSKLTVSNWRWQMDDFSCSVMHEALHNHYTQKSLSLSPGK
B2: FS17-33-451AA/MSL109 mock mAb^2 (bispecific antibody, human IgG1, kappa, L234A L235A)
heavy: EEQVLESGGGLVKPGGSLRLSCAASGFTFSPYSVFWVRQAPGKGLEWVSSINSDSTYKYYADSVKGRFTISRDNAENSIFLQMNSLRAEDTAVYYCARDRSYYAFSSGSLSDYYYGLDVWGQGTTVIVSSASTKGPSVFPLAPSSKSTSGGTAALGCLVKDYFPEPVTVSWNSGALTSGVHTFPAVLQSSGLYSLSSVVTVPSSSLGTQTYICNVNHKPSNTKVDKKVEPKSCDKTHTCPPCPAPEAAGGPSVFLFPPKPKDTLMISRTPEVTCVVVDVSHEDPEVKFNWYVDGVEVHNAKTKPREEQYNSTYRVVSVLTVLHQDWLNGKEYKCKVSNKALPAPIEKTISKAKGQPREPQVYTLPPSRDEEGYWVSLTCLVKGFYPSDIAVEWESNGEPQYWAKTTPPVLDSDGSFFLYSKLTVSNWRWQLDDVFSCSVMHEALHNHYTQKSLSLSPGK
light: DIVMTQSPLSLSVTPGEPASISCRSSQSLLHTNGYNYLDWYVQKPGQSPQLLIYLASNRASGVPDRFSGSGSGTDFTLKISRVETEDVGVYYCMQALQIPRTFGQGTKVEIKRTVAAPSVFIFPPSDEQLKSGTASVVCLLNNFYPREAKVQWKVDNALQSGNSQESVTEQDSKDSTYSLSSTLTLSKADYEKHKVYACEVTHQGLSSPVTKSFNRGEC
notes: also called FS17-33-451AA/MSL109 (parent 2)
B3: FS17-33-548AA/MSL109 (bispecific antibody, human IgG1, kappa, L234A L235A)
heavy: B2 heavy with D432G
light: B2 light
B4: FS17-33-539AA/MSL109 (bispecific antibody, human IgG1, kappa, L234A L235A)
heavy: B2 heavy with E371T, D432G, H445R
light: B2 light
B5: FS17-33-449AA/HelD1.3 mock mAb^2 (bispecific antibody, human IgG1, kappa, L234A L235A)
heavy: QVQLQESGPGLVRPSQTLSLTCTVSGSTFSGYGVNWVRQPPGRGLEWIGMIWGDGNTDYNSALKSRVTMLVDTSKNQFSLRLSSVTAADTAVYYCARERDYRLDYWGQGSLVTVSSASTKGPSVFPLAPSSKSTSGGTAALGCLVKDYFPEPVTVSWNSGALTSGVHTFPAVLQSSGLYSLSSVVTVPSSSLGTQTYICNVNHKPSNTKVDKKVEPKSCDKTHTCPPCPAPEAAGGPSVFLFPPKPKDTLMISRTPEVTCVVVDVSHEDPEVKFNWYVDGVEVHNAKTKPREEQYNSTYRVVSVLTVLHQDWLNGKEYKCKVSNKALPAPIEKTISKAKGQPREPQVYTLPPSRDETGYWVSLTCLVKGFYPSDIAVEWESNGEPQYWAKTTPPVLDSDGSFFLYSKLTVSNWRWQLDDVFSCSVMHEALHNHYTQKSLSLSPGK
light: DIQMTQSPASLSASVGETVTITCRASGNIHNYLAWYQQKQGKSPQLLVYNAKTLADGVPSRFSGSGSGTQYSLKINSLQPEDFGSYYCQHFWSTPRTFGGGTKLEIKRTVAAPSVFIFPPSDEQLKSGTASVVCLLNNFYPREAKVQWKVDNALQSGNSQESVTEQDSKDSTYSLSSTLTLSKADYEKHKVYACEVTHQGLSSPVTKSFNRGEC
B6: FS17-33-449/HelD1.3 mock mAb^2 (without LALA) (bispecific antibody, human IgG1, kappa)
heavy: B5 heavy with A233L, A234L
light: B5 light
B7: FS17-33-451/HelD1.3 mock mAb^2 (without LALA) (bispecific antibody, human IgG1, kappa)
heavy: B5 heavy with A233L, A234L, T357E
light: B5 light
B8: FS17-33-451AA/HelD1.3 mock mAb^2 (bispecific antibody, human IgG1, kappa, L234A L235A)
heavy: B5 heavy with T357E
light: B5 light
notes: also called F17-33-451AA/HelD1.3; F17-33-451AA/HELD1.3

Legend:
Assay in all cases: cell-based or functional assay
[1] = biological target: T1, Human PD-L1 expressed on cells (human, UniProt Q9NZQ7 19-290)
T1 sequence (Q9NZQ7 19-290 limits assumed): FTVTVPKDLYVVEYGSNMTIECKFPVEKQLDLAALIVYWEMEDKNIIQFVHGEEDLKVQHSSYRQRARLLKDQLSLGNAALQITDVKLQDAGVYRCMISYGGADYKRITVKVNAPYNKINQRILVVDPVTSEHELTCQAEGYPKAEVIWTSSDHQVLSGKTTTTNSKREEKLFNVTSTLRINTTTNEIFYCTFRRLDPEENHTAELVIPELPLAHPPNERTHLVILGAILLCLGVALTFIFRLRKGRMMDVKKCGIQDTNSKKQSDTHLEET

[2] = biological target: T1, Human PD-L1 expressed on cells; remark: listed apart in the source
[3] = biological target: T1, Human PD-L1 expressed on cells; remark: listed apart in the source

| Binder | SEB EC50 [2] [nM] | SEB assay (IFNγ release) EC50 [3] [nM] | also measured |
| --- | --- | --- | --- |
| B1 |  |  | SEB assay EC50 [1]: 0.0753 nM |
| B2 | 1.11 |  |  |
| B3 | 3.21 |  |  |
| B4 | 0.97 |  |  |
| B5 |  | 0.55 |  |
| B6 |  | 0.644 |  |
| B7 |  | 0.852 |  |
| B8 |  | 1.12 |  |
